Article PMC9370705, “Conformational Dynamics of Human ALKBH2 Dioxygenase in the Course of DNA Repair as Revealed by Stopped-Flow Fluorescence Spectroscopy”

Key:
[1] = target: T1, ALKBH2 (Homo sapiens, UniProt Q6NS38 1-261); assay: stopped-flow FRET; Fe(II), 2OG; overall KaSF (Eq. 1); 50 mM HEPES-KOH pH 7.5, 50 mM KCl, 10 mM MgCl2, 25 °C (titration, 1 uM enzyme per legend); 2 mM EDTA for apo; stopped-flow buffer not printed in the material; conditions: protein: recombinant; (Ni-chelating column); label: 5'-FAM and 3'-BHQ1 on strand 1; blunt
T1 sequence: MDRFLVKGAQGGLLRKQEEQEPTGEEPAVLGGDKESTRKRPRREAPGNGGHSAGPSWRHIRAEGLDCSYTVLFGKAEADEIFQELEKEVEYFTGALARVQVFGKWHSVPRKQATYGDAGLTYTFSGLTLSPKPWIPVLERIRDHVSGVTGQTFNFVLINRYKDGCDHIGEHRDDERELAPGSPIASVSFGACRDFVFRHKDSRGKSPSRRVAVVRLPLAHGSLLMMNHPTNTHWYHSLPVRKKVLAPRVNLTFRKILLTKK

[2] = target: T1, ALKBH2; assay: stopped-flow εA fluorescence; Fe(II), 2OG; enzyme-product complex after εA repair; 50 mM HEPES-KOH pH 7.5, 50 mM KCl, 10 mM MgCl2, 25 °C (titration, 1 uM enzyme per legend); 2 mM EDTA for apo; stopped-flow buffer not printed in the material; conditions: protein: recombinant; (Ni-chelating column); blunt
[3] = target: T1, ALKBH2; assay: Trp fluorescence titration; Fe(II)/2OG complex per Figure 2 legend (text says ALKBH2); 50 mM HEPES-KOH pH 7.5, 50 mM KCl, 10 mM MgCl2, 25 °C (titration, 1 uM enzyme per legend); 2 mM EDTA for apo; stopped-flow buffer not printed in the material; conditions: protein: recombinant; (Ni-chelating column); blunt
[4] = target: T1, ALKBH2; assay: stopped-flow FRET; Fe(II), 2OG; initial complex k1/k-1; 50 mM HEPES-KOH pH 7.5, 50 mM KCl, 10 mM MgCl2, 25 °C (titration, 1 uM enzyme per legend); 2 mM EDTA for apo; stopped-flow buffer not printed in the material; conditions: protein: recombinant; (Ni-chelating column); label: 5'-FAM and 3'-BHQ1 on strand 1; blunt
[5] = target: T1, ALKBH2; assay: stopped-flow fluorescence (FRET/εA); Fe(II), 2OG; overall KaSF (Eq. 1); 50 mM HEPES-KOH pH 7.5, 50 mM KCl, 10 mM MgCl2, 25 °C (titration, 1 uM enzyme per legend); 2 mM EDTA for apo; stopped-flow buffer not printed in the material; conditions: protein: recombinant; (Ni-chelating column); label: 5'-FAM and 3'-BHQ1 on strand 1; blunt
[6] = target: T1, ALKBH2; assay: stopped-flow FRET; Fe(II), 2OG; enzyme-product complex after εA repair; 50 mM HEPES-KOH pH 7.5, 50 mM KCl, 10 mM MgCl2, 25 °C (titration, 1 uM enzyme per legend); 2 mM EDTA for apo; stopped-flow buffer not printed in the material; conditions: protein: recombinant; (Ni-chelating column); label: 5'-FAM and 3'-BHQ1 on strand 1; blunt
[7] = target: T1, ALKBH2; assay: stopped-flow FRET; Fe(II), 2OG; enzyme-product complex after m1A repair; 50 mM HEPES-KOH pH 7.5, 50 mM KCl, 10 mM MgCl2, 25 °C (titration, 1 uM enzyme per legend); 2 mM EDTA for apo; stopped-flow buffer not printed in the material; conditions: protein: recombinant; (Ni-chelating column); label: 5'-FAM and 3'-BHQ1 on strand 1; blunt
[8] = target: T1, ALKBH2; assay: stopped-flow FRET; Fe(II), 2OG; overall KaSF (Eq. 1); Table 2 rates give about 2.3e5; 50 mM HEPES-KOH pH 7.5, 50 mM KCl, 10 mM MgCl2, 25 °C (titration, 1 uM enzyme per legend); 2 mM EDTA for apo; stopped-flow buffer not printed in the material; conditions: protein: recombinant; (Ni-chelating column); label: 5'-FAM and 3'-BHQ1 on strand 1; blunt

B1: m1A_FRET (dsDNA)
DNA 1: ACAGGATCCGGCATA
DNA 2: TATGCCGGATCCTGT
modifications: N1-methyladenine at position 6 of strand 1
Ka [1]: 600000 M⁻¹

B2: undamaged 15 nt duplex (A instead of m1A); also product A of m1A or εA repair (dsDNA)
DNA 1: ACAGGATCCGGCATA
DNA 2: TATGCCGGATCCTGT
Kd [2]: 2200 ± 100 nM
Kd [3]: 7800 ± 1200 nM

B3: εA_FRET (dsDNA)
DNA 1: ACAGGATCCGGCATA
DNA 2: TATGCCGGATCCTGT
modifications: 1,N6-ethenoadenine at position 6 of strand 1
Ka [4]: 860000 M⁻¹
Ka [5]: 1.9e+06 M⁻¹

B4: repaired product of m1A_FRET or εA_FRET (dsDNA)
DNA 1: ACAGGATCCGGCATA
DNA 2: TATGCCGGATCCTGT
Kd [6]: 400 ± 10 nM
Kd [7]: 1400 ± 200 nM

B5: m3C_FRET (dsDNA)
DNA 1: ACAGGATCCGGCATA
DNA 2: TATGCCGGATCCTGT
modifications: N3-methylcytosine at position 9 of strand 1
Ka [4]: 230000 M⁻¹
Ka [8]: 460000 M⁻¹
